Test results as given in PMC2175344.

How the values were obtained:
Experiment in all cases: fluorescence anisotropy
[1] = target: HIV-1 nucleocapsid protein (NC) (HIV-1, UniProt P12493 378-432)
[2] = target: HIV-1 reverse transcriptase (RT) (HIV-1, UniProt P04585;P04585 588-1147;588-1027)
[3] = target: APOBEC3G (A3G) (Homo sapiens, UniProt Q9HC16 1-384)
APOBEC3G (A3G), sequence (Q9HC16 whole entry): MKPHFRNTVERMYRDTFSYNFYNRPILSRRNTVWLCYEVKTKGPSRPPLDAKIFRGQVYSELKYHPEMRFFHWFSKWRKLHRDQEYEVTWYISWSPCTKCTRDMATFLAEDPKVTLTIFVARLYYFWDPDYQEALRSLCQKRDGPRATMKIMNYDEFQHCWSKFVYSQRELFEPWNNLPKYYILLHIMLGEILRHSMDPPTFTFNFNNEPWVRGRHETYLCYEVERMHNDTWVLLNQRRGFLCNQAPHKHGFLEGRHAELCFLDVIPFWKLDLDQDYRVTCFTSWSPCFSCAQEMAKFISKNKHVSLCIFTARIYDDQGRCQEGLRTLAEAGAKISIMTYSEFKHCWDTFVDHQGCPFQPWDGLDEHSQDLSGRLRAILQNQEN

B1: 5'-FAM-JL587D 20-mer (ssDNA)
DNA: CTTCTTTGGGAGTGAATTAG
B1 was tested, and the Kd [1] was 84.1 ± 7.8 nM, the Kd [2] was 1840 ± 390 nM and the Kd [3] was 238 ± 95 nM.
